These results are taken from the supplement of paper PMC9112550, “Optimization of the antimicrobial peptide Bac7 by deep mutational scanning” (BMC Biology, 2022).
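Note: peptides expressed intracellularly from a pBAD plasmid library in pooled LB shake-flask culture, induced with 0.3% L-arabinose, DNA abundance read by NGS, three biological replicates, DESeq2 with apeglm shrinkage.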

The subject of this series is Escherichia coli TOP10. The experiment in a line: shrunken log2 fold change of peptide-encoding DNA abundance (4.5 h post-induction vs induction); higher = less antimicrobial activity (less host growth inhibition). The settings on record: time post-induction: 4.5 h; library: site-saturation at positions 5, 18, 19, 20.
For RRIRDRPPRLPRPRPRPKVQPRP, the “shrunken log2 fold change” value worked out at 0.116.

For RRIRHRPPRLPRPRPRPNELPRP, the “shrunken log2 fold change” value came out at 0.031. RRIRLRPPRLPRPRPRPNNYPRP: the “shrunken log2 fold change” value is -0.577. Under RRIRLRPPRLPRPRPRPTRMPRP stands 0.513. In the case of RRIRCRPPRLPRPRPRPCIKPRP it was -0.426; in that of RRIRCRPPRLPRPRPRPHIVPRP, -0.325. Under RRIRPRPPRLPRPRPRPVLHPRP stands -0.1.

As to RRIRSRPPRLPRPRPRPDVRPRP, the “shrunken log2 fold change” value is 0.0647. In the case of RRIRMRPPRLPRPRPRPWDQPRP it was 0.0532.

In the case of RRIRQRPPRLPRPRPRPHTAPRP, the “shrunken log2 fold change” value was -0.926. On to RRIRCRPPRLPRPRPRPENQPRP, for which the “shrunken log2 fold change” value is -0.0366. Under RRIRTRPPRLPRPRPRPENNPRP stands -0.267; under RRIRSRPPRLPRPRPRPEECPRP, 0.251; under RRIRGRPPRLPRPRPRPHMHPRP, 0.448.

Turning to RRIRSRPPRLPRPRPRPQMQPRP, the “shrunken log2 fold change” value is 0.00783.

Turning to RRIRFRPPRLPRPRPRPSTGPRP, the “shrunken log2 fold change” value is -0.787.

With RRIRTRPPRLPRPRPRPAIYPRP, the “shrunken log2 fold change” value is -0.372.

For RRIRFRPPRLPRPRPRPGYCPRP, the “shrunken log2 fold change” value was -0.321. In the case of RRIRRRPPRLPRPRPRPTSDPRP, the “shrunken log2 fold change” value is 0.256.

As for RRIRDRPPRLPRPRPRPLMEPRP, the “shrunken log2 fold change” value was found to be 0.117.

As for RRIRQRPPRLPRPRPRPWPCPRP, the “shrunken log2 fold change” value is -0.0164. On to RRIRKRPPRLPRPRPRPMWAPRP, for which the “shrunken log2 fold change” value came out at 0.184.

Turning to RRIRKRPPRLPRPRPRPMKAPRP, the “shrunken log2 fold change” value is -0.00163. In the case of RRIRNRPPRLPRPRPRPYCYPRP it was -1.44; in that of RRIRARPPRLPRPRPRPIQTPRP, -0.0208; in that of RRIRPRPPRLPRPRPRPLWLPRP, -0.0275. Under RRIRYRPPRLPRPRPRPSPSPRP stands -0.269; under RRIRMRPPRLPRPRPRPTSEPRP, 0.511. Under RRIRERPPRLPRPRPRPGFSPRP stands -0.196. Consider RRIRPRPPRLPRPRPRPLLMPRP, for which the “shrunken log2 fold change” value was -0.185. On to RRIRRRPPRLPRPRPRPATKPRP, for which the “shrunken log2 fold change” value turned out to be 0.0529. On to RRIRFRPPRLPRPRPRPWWIPRP, for which the “shrunken log2 fold change” value was -0.681. As for RRIRWRPPRLPRPRPRPPQHPRP, the “shrunken log2 fold change” value was determined as 0.275.

Regarding RRIRWRPPRLPRPRPRPVYIPRP, the “shrunken log2 fold change” value was -0.0308. For RRIRIRPPRLPRPRPRPDHCPRP, the “shrunken log2 fold change” value was -0.0229. In the case of RRIRRRPPRLPRPRPRPPYNPRP, the “shrunken log2 fold change” value is -0.019.

For RRIRHRPPRLPRPRPRPCYPPRP, the “shrunken log2 fold change” value is -0.384. As for RRIRSRPPRLPRPRPRPWSFPRP, the “shrunken log2 fold change” value amounted to 0.0324. RRIRFRPPRLPRPRPRPDHQPRP: the “shrunken log2 fold change” value is -0.147. Take RRIRFRPPRLPRPRPRPIMHPRP: the “shrunken log2 fold change” value is -0.212. Regarding RRIRKRPPRLPRPRPRPPVWPRP, the “shrunken log2 fold change” value is 0.448. As to RRIRNRPPRLPRPRPRPLGCPRP, the “shrunken log2 fold change” value was -0.27. Take RRIRSRPPRLPRPRPRPEVNPRP: the “shrunken log2 fold change” value came to 0.426. In the case of RRIRVRPPRLPRPRPRPWKAPRP it was 0.0634; in that of RRIRWRPPRLPRPRPRPPGCPRP, 0.975; in that of RRIRLRPPRLPRPRPRPRFGPRP, 0.145.

Regarding RRIRNRPPRLPRPRPRPIFIPRP, the “shrunken log2 fold change” value was -0.44. In the case of RRIRKRPPRLPRPRPRPWSSPRP it was -0.136; in that of RRIRVRPPRLPRPRPRPGHNPRP, -0.131; in that of RRIRRRPPRLPRPRPRPKAWPRP, 0.0767. In the case of RRIRERPPRLPRPRPRPNVYPRP it was -0.439; in that of RRIRIRPPRLPRPRPRPATIPRP, -0.201; in that of RRIRQRPPRLPRPRPRPNHIPRP, -0.526.

For the sequence RRIRKRPPRLPRPRPRPKNKPRP, the “shrunken log2 fold change” value came out at 0.287.

On to RRIRWRPPRLPRPRPRPRDMPRP, for which the “shrunken log2 fold change” value is -0.255. In the case of RRIRGRPPRLPRPRPRPPERPRP it was 1.02; in that of RRIRYRPPRLPRPRPRPKYHPRP, -2.19; in that of RRIRWRPPRLPRPRPRPEYSPRP, 0.0675. On to RRIRRRPPRLPRPRPRPDNAPRP, for which the “shrunken log2 fold change” value is -0.227.

Consider RRIRARPPRLPRPRPRPDTCPRP, for which the “shrunken log2 fold change” value was -0.162. Under RRIRLRPPRLPRPRPRPACNPRP stands -0.191.

Take RRIRQRPPRLPRPRPRPCNNPRP: the “shrunken log2 fold change” value was -0.255. Regarding RRIRTRPPRLPRPRPRPGGCPRP, the “shrunken log2 fold change” value came to 0.26. In the case of RRIRGRPPRLPRPRPRPLERPRP it was 0.577. Take RRIRNRPPRLPRPRPRPHWNPRP: the “shrunken log2 fold change” value was -1.01.

On to RRIRLRPPRLPRPRPRPPFVPRP, for which the “shrunken log2 fold change” value amounted to 0.00109. Under RRIRCRPPRLPRPRPRPNCIPRP stands -0.723; under RRIRCRPPRLPRPRPRPYQIPRP, -0.852; under RRIRCRPPRLPRPRPRPALFPRP, 0.344.

With RRIRFRPPRLPRPRPRPWINPRP, the “shrunken log2 fold change” value was -0.0461. In the case of RRIRCRPPRLPRPRPRPCNNPRP it was -0.31; in that of RRIRPRPPRLPRPRPRPYGLPRP, -0.857; in that of RRIRCRPPRLPRPRPRPMHAPRP, 0.315. On to RRIRYRPPRLPRPRPRPRSNPRP, for which the “shrunken log2 fold change” value was found to be 0.00328. In the case of RRIRCRPPRLPRPRPRPMRTPRP it was 0.962; in that of RRIRARPPRLPRPRPRPKNPPRP, 0.196; in that of RRIRRRPPRLPRPRPRPELEPRP, 1.16. On to RRIRERPPRLPRPRPRPYWGPRP, for which the “shrunken log2 fold change” value was -0.346. In the case of RRIRDRPPRLPRPRPRPNPAPRP it was 0.0831.

As for RRIRPRPPRLPRPRPRPEKWPRP, the “shrunken log2 fold change” value worked out at 0.0413.

As for RRIRCRPPRLPRPRPRPWGMPRP, the “shrunken log2 fold change” value is -0.16. Turning to RRIRWRPPRLPRPRPRPVKCPRP, the “shrunken log2 fold change” value was -0.015.

For RRIRERPPRLPRPRPRPCMQPRP, the “shrunken log2 fold change” value was -0.133. In the case of RRIRERPPRLPRPRPRPPSLPRP it was -0.0799; in that of RRIRERPPRLPRPRPRPGKDPRP, -0.24. In the case of RRIRHRPPRLPRPRPRPNWNPRP it was -0.451. As to RRIRHRPPRLPRPRPRPEREPRP, the “shrunken log2 fold change” value worked out at 0.0173. Under RRIRYRPPRLPRPRPRPSNCPRP stands -0.107.

RRIRDRPPRLPRPRPRPTQKPRP: the “shrunken log2 fold change” value came out at 0.268.

On to RRIRCRPPRLPRPRPRPWELPRP, for which the “shrunken log2 fold change” value stood at 0.268. Under RRIRMRPPRLPRPRPRPEKAPRP stands 1.52.
